Measured values taken from patent US20250043019A1 (Janssen / Centocor, published 2025).

Tests used:
[1] = target: T1, human CD79b on the cell surface (human, UniProt P40259 29-229); assay: cell-based or functional assay
T1 sequence: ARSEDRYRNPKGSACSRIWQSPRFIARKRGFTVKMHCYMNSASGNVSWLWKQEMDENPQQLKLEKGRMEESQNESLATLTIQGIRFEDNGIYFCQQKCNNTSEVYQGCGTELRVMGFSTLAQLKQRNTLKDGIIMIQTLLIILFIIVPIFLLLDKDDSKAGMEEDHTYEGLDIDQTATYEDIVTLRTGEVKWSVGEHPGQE

[2] = target: T2, recombinant extracellular domain of human CD79b, short isoform (human, UniProt P40259 29-159); assay: SPR Biacore 8k, antibody captured by anti-Fc, 25 C
T2 chain: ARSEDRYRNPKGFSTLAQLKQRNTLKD
Description: (§1) General Protocol for SPR Affinity Assessment: Affinity assessment of the bispecific trispecific constructs against human CD79b were measure using recombinantly expressed extracellular domain of CD79b short and long isoforms (CD9W7.001 and CD9W8.001, respectively) by Surface Plasmon Resonance (SPR) using a Biacore 8k SPR system (Biacore) at 25° C. in HBSP+ buffer. Cross-reactivity of the same antibody panel was also assessed against cyno and mouse antigens (CD9W1.001 and CD9W105.001, respectively). Briefly, a C1 sensor chip was immobilized with anti-human Fc (target immobilization levels of >400 RU) using vendor recommended amino coupling protocol. […] The association and dissociation phases were measured for 2 or 3 minutes and 30 minutes, respectively.
(§2) The raw binding sensorgrams were processed using Biacore Insight software (Biacore) by double-referencing and the processed sensorgrams were analyzed for cross-reactivity and fitted to a 1:1 Langmuir model to obtain on-rates, off-rates and affinities.

[3] = target: T3, recombinant extracellular domain of human CD79b, long isoform (human, UniProt P40259 29-159); assay: SPR Biacore 8k, antibody captured by anti-Fc, 25 C
T3 construct: also called hu CD79b long
T3 sequence: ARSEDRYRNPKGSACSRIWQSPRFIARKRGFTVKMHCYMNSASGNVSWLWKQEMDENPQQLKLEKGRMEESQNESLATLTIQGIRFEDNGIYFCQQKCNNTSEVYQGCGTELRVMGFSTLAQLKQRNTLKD
Description: as §1, §2

[4] = target: T1, human CD79b on the cell surface; assay: flow cytometry, HBL-1 cells, 1 h 37 C
Description: (§3) All cells were washed with BD stain buffer (BD Biosciences; Cat #554657), centrifuged at 1200 RPM for 3 minutes, with supernatant discarded. Cells were then stained for 20 minutes at 4° C. with BD stain buffer containing AlexaFluor 647 labeled anti-human IgG secondary antibody (Jackson Immuno; Cat #109-606-098) at a 1:200 dilution along with Aqua Fixable Live/Dead stain (Invitrogen; Cat #L34957) at a 1:400 dilution. All cells were washed with BD stain buffer (BD Biosciences; Cat #554657), centrifuged at 1200 RPM for 3 mins, with supernatant discarded. Cells were analyzed using Intellicyt (Sartorius) flow cytometer and mean fluorescent intensity (MFI) was generated using Forcyt software (Sartorius). MFI was graphed and EC50 values generated using GraphPad PRISM v.8. Dose response curves were generated by transforming the x axis values using the formula […]. Data was then graphed using non-linear regression curve fit analysis “log(agonist) vs. response-variable slope (four parameter)”.

[5] = target: T1, human CD79b on the cell surface; assay: flow cytometry, HBL-1 cells, 1 h 37 C; control row of Table 10, same value as Table 8
Description: as §3

[6] = target: T1, human CD79b on the cell surface; assay: flow cytometry, Carnaval cells, 1 h 37 C
Description: as §3

[7] = target: T1, human CD79b on the cell surface; assay: flow cytometry, Carnaval cells, 1 h 37 C; control row of Table 10, same value as Table 8
Description: as §3

[8] = target: T1, human CD79b on the cell surface; assay: cell-based or functional assay; remark: listed apart in the source
[9] = target: T1, human CD79b on the cell surface; assay: cell-based or functional assay; remark: listed apart in the source
[10] = target: T4, cynomolgus monkey CD79b antigen (cynomolgus monkey); assay: SPR Biacore 8k, cyno CD79b injected up to 3000 nM
T4 construct: also called cyno CD79b; CD9W1.001
Description: as §1, §2

[11] = target: T1, human CD79b on the cell surface; assay: cell-based or functional assay; remark: listed apart in the source
[12] = target: T5, human CD79b and CD20 co-expressed on the surface of B-lymphoma cell lines or primary B cells (human, UniProt P11836 1-297); assay: cell-based or functional assay
T5 sequence 1: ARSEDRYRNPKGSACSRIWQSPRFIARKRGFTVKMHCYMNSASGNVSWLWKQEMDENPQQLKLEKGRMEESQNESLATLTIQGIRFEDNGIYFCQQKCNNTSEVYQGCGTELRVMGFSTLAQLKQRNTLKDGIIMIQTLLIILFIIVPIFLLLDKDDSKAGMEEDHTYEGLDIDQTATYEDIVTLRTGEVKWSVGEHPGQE
T5 sequence 2: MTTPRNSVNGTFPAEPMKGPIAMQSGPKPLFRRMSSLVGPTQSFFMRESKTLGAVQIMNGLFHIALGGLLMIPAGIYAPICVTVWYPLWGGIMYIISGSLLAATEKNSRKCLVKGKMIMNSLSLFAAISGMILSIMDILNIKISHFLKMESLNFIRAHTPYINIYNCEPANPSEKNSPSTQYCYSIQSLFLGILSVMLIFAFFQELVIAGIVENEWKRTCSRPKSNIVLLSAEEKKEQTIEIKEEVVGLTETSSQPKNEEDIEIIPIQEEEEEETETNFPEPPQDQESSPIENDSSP

[13] = target: T5, human CD79b and CD20 co-expressed on …; assay: flow cytometry, Carnaval cells (CD79b+ CD20+), 1 h 37 C
Description: as §3

[14] = target: T5, human CD79b and CD20 co-expressed on …; assay: flow cytometry, HBL-1 cells (CD79b+ CD20+), 1 h 37 C
Description: as §3

[15] = target: T5, human CD79b and CD20 co-expressed on …; assay: flow cytometry, OCI-LY10 cells (CD79b+ CD20+), 1 h 37 C
Description: as §3

[16] = target: T5, human CD79b and CD20 co-expressed on …; assay: cell-based or functional assay; remark: listed apart in the source
[17] = target: T5, human CD79b and CD20 co-expressed on …; assay: cell-based or functional assay; remark: listed apart in the source
[18] = target: T5, human CD79b and CD20 co-expressed on …; assay: cell-based or functional assay; remark: listed apart in the source
[19] = target: T5, human CD79b and CD20 co-expressed on …; assay: cell-based or functional assay; remark: listed apart in the source

B1: 79C3B651 CD79bxCD3 bispecific antibody (bispecific antibody, human IgG1, kappa, L234A L235A)
heavy: QVQLQESGPGLVKPSQTLSLTCTVSGVSISNYYWSWIRQPPGKGLEWIGRISPSGRTNYNPSLKSRVTMSLDASKNQFSLKLSSVTAADTAVYYCARGEYSGTYSYSFDIWGQGTMVTVSSASTKGPSVFPLAPSSKSTSGGTAALGCLVKDYFPEPVTVSWNSGALTSGVHTFPAVLQSSGLYSLSSVVTVPSSSLGTQTYICNVNHKPSNTKVDKKVEPKSCDKTHTCPPCPAPEAAGGPSVFLFPPKPKDTLMISRTPEVTCVVVSVSHEDPEVKFNWYVDGVEVHNAKTKPREEQYNSTYRVVSVLTVLHQDWLNGKEYKCKVSNKALPAPIEKTISKAKGQPREPQVYTLPPSREEMTKNQVSLSCAVKGFYPSDIAVEWESNGQPENNYKTTPPVLDSDGSFFLVSKLTVDKSRWQQGNVFSCSVMHEALHNRFTQKSLSLSPGK
light: DIQMTQSPSSLSASVGDRVTITCRSSQSLFDSDDGNTYLDWFQQKPGQSPKLLIQTLSYRASGVPSRFSGSGSGTDFTLTISSLQPEDFATYYCMQRMEFPLTFGGGTKVEIKRTVAAPSVFIFPPSDEQLKSGTASVVCLLNNFYPREAKVQWKVDNALQSGNSQESVTEQDSKDSTYSLSSTLTLSKADYEKHKVYACEVTHQGLSSPVTKSFNRGEC
chain: EIVLTQSPATLSASPGERVTLSCSASSSVSYMNWYQQKPGQAPRRWIYDSSKLASGVPARFSGSGSGRDYTLTISSLEPEDFAVYYCQQWSRNPPTFGGGTKVEIKGGSEGKSSGSGSESKSTGGSQVQLVQSGAEVKKPGSSVKVSCKASGYTFTRSTMHWVKQAPGQGLEWIGYINPSSAYTNYNQKFQGRVTLTADKSTSTAYMELSSLRSEDTAVYYCASPQVHYDYAGFPYWGQGTLVTVSSEPKSSDKTHTCPPCPAPEAAGGPSVFLFPPKPKDTLMISRTPEVTCVVVSVSHEDPEVKFNWYVDGVEVHNAKTKPREEQYNSTYRVVSVLTVLHQDWLNGKEYKCKVSNKALPAPIEKTISKAKGQPREPQVYTLPPSREEMTKNQVSLWCLVKGFYPSDIAVEWESNGQPENNYKTTPPVLDSDGSFFLYSKLTVDKSRWQQGNVFSCSVMHEALHNHYTQKSLSLSPGK
notes: IgG1 bispecific; CD79b Fab arm plus CD3 scFv-Fc arm; also called 79C3B651 bsAb; CD9B643 x CD3B2030-N106A
[1]
  IC50, CARNAVAL killing, 72 h (FACS): 0.25 nM
  IC50, HBL-1 killing, 72 h (FACS): 2.2 nM
  IC50, OCI-LY10 killing, 72 h (FACS): > 100 nM
[2]
  Kd: 0.35 nM
[3]
  Kd: 0.052 nM
[4]
  EC50: 15 nM
[5]
  EC50: 15 nM
[6]
  EC50: 12 nM
[7]
  EC50: 12 nM
[8]
  Cmax (maximum cytotoxicity), donor 1: 5%
  Cmax (maximum cytotoxicity), donor 2: 13%
  Cmax (maximum cytotoxicity), donor 3: 34%
  EC50, autologous B-cell depletion, donor 3: 17 nM
[9]
  IC50, T-cell killing of HBL-1 (Incucyte): 0.0325 nM
[10]
  Kd: > 3000 nM
[11]
  IC50, T-cell killing of OCI-Ly10 (Incucyte): 4.7 nM

B2: C923B99 CD79bxCD20xCD3 trispecific antibody (other)
heavy: QVQLQESGPGLVKPSQTLSLTCTVSGVSISNYYWSWIRQPPGKGLEWIGRISPSGRTNYNPSLKSRVTMSLDASKNQFSLKLSSVTAADTAVYYCARGEYSGTYSYSFDIWGQGTMVTVSSASTKGPSVFPLAPSSKSTSGGTAALGCLVKDYFPEPVTVSWNSGALTSGVHTFPAVLQSSGLYSLSSVVTVPSSSLGTQTYICNVNHKPSNTKVDKKVEPKSCDKTHTCPPCPAPEAAGGPSVFLFPPKPKDTLMISRTPEVTCVVVSVSHEDPEVKFNWYVDGVEVHNAKTKPREEQYNSTYRVVSVLTVLHQDWLNGKEYKCKVSNKALPAPIEKTISKAKGQPREPQVYTLPPSREEMTKNQVSLSCAVKGFYPSDIAVEWESNGQPENNYKTTPPVLDSDGSFFLVSKLTVDKSRWQQGNVFSCSVMHEALHNRFTQKSLSLSPGK
light: DIQMTQSPSSLSASVGDRVTITCRSSQSLFDSDDGNTYLDWFQQKPGQSPKLLIQTLSYRASGVPSRFSGSGSGTDFTLTISSLQPEDFATYYCMQRMEFPLTFGGGTKVEIKRTVAAPSVFIFPPSDEQLKSGTASVVCLLNNFYPREAKVQWKVDNALQSGNSQESVTEQDSKDSTYSLSSTLTLSKADYEKHKVYACEVTHQGLSSPVTKSFNRGEC
chain: EIVLTQSPATLSASPGERVTLSCSASSSVSYMNWYQQKPGQAPRRWIYDSSKLASGVPARFSGSGSGRDYTLTISSLEPEDFAVYYCQQWSRNPPTFGGGTKVEIKGGSEGKSSGSGSESKSTGGSQVQLVQSGAEVKKPGSSVKVSCKASGYTFTRSTMHWVKQAPGQGLEWIGYINPSSAYTNYNQKFQGRVTLTADKSTSTAYMELSSLRSEDTAVYYCASPQVHYDYAGFPYWGQGTLVTVSSEPKSSDKTHTCPPCPAPEAAGGPSVFLFPPKPKDTLMISRTPEVTCVVVSVSHEDPEVKFNWYVDGVEVHNAKTKPREEQYNSTYRVVSVLTVLHQDWLNGKEYKCKVSNKALPAPIEKTISKAKGQPREPQVYTLPPSREEMTKNQVSLWCLVKGFYPSDIAVEWESNGQPENNYKTTPPVLDSDGSFFLYSKLTVDKSRWQQGNVFSCSVMHEALHNHYTQKSLSLSPGKGGSEGKSSGSGSESKSTGGSAIQLTQSPSSLSASVGDRVTITCRASSSVSYIHWFQQKPGKAPKPLIYATSNLASGVPSRFSGSGSGTDFTLTISSLQPEDFATYYCQQWTSNPPTFGQGTKLEIKGGSEGKSSGSGSESKSTGGSQVQLVQSGAEVKKPGSSVKVSCKASGYTFTSYNMHWVRQAPGQGLEWMGAIYPGNGDTSYAQKFQGRVTITADKSTSTAYMELSSLRSEDTAVYYCARSTYYGGDWYFNVWGQGTLVTVSS
notes: Trispecific IgG1; also called CD9B643 / CD3B2030-N106A-scFv-LH-C20B22
[12]
  IC50, CARNAVAL killing, 72 h (FACS): 0.17 nM
  IC50, HBL-1 killing, 72 h (FACS): 1.68 nM
  IC50, OCI-LY10 killing, 72 h (FACS): 16.9 nM
[2]
  Kd: 0.27 nM
[3]
  Kd: 0.04 nM
[13]
  EC50: 6 nM
[14]
  EC50: 8 nM
[15]
  EC50: 2 nM
[16]
  Cmax (maximum cytotoxicity), donor 1: 35%
  Cmax (maximum cytotoxicity), donor 2: 67%
  Cmax (maximum cytotoxicity), donor 3: 66%
  EC50, autologous B-cell depletion, donor 2: 9 nM
  EC50, autologous B-cell depletion, donor 3: 23 nM
[17]
  IC50, T-cell killing of HBL-1 (Incucyte): 0.0692 nM
[18]
  IC50, CARNAVAL killing (Incucyte): 0.285 nM
[10]
  Kd: > 3000 nM
[19]
  IC50, T-cell killing of OCI-Ly10 (Incucyte): 5.6 nM
